Experimental data: article PMC10470007 (The Journal of Biological Chemistry, 2023)

Biological target: T1, 1N3R Tau protein isoform with a V5 insertion between E73 and A74 (V5 epitope tag (simian virus 5 P/V …, strain, labeled with Alexa Fluor 488 NHS (succinimidyl) ester, 2:1 NHS Alexa:Tau-V5))
T1 construct: also called Tau-V5; labeled Tau-V5
Test: flow cytometry on cells
Conditions: one partner purified

B1: NbV5-AGAP2-Halo-myc (VHH)
VHH: EVQLQASGGGFVQPGGSLRLSCAASGTTSFGDTMGWFRQAPGKEREFVSAISRQGDKHYYADSVKGRFTISRDNSKNTVYLQMNSLRAEDTATYYCAEWMNTRREFITPYWGQGTQVTVSS
notes: also called NbV5 (yeast surface display)
Q: Which Kd does the source give for B1 here?
A: 29 nM
